Assay [1] concerns the target T1, DNA repair endonuclease XPF (human, UniProt Q92889 1-916).
T1 construct: Endogenous protein of the human A549 cell line, inside fixed cells; also called encoded by the ERCC4 gene
T1 sequence: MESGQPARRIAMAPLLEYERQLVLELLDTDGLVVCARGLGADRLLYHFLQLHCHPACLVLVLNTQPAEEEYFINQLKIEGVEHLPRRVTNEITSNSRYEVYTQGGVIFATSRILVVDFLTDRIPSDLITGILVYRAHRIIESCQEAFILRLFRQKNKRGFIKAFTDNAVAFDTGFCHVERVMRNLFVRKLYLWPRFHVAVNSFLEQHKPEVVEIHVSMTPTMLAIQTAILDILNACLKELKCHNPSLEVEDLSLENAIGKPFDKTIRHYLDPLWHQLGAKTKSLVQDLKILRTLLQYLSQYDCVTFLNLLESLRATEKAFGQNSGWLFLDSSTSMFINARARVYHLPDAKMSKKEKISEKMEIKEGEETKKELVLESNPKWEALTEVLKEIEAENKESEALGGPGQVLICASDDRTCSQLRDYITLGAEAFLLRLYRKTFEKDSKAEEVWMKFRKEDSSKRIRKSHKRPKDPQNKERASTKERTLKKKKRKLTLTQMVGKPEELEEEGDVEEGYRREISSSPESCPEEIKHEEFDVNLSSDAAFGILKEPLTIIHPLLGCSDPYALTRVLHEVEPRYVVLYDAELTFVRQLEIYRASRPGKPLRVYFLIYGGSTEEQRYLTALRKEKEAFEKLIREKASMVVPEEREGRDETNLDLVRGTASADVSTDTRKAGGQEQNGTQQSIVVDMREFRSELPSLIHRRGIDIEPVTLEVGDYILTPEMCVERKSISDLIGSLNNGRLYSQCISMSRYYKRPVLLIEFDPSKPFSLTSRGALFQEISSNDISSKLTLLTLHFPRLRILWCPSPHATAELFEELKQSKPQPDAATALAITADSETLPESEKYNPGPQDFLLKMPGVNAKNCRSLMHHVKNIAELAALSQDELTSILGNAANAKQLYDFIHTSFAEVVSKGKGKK
The experiment in a line: proximity ligation assay (Duolink) in ERCC1-deficient A549 cells re-expressing one isoform. How it is done: (§1) Protein interactions were studied using the Duolink II proximity ligation assays (PLA) kit (Olink, Uppsala, Sweden). Coverslips were processed according to the manufacturer's instructions. In brief, the cells were fixed with methanol, permeabilized with triton, stained with the primary antibodies, and then incubated with the secondary oligonucleotide-linked antibodies. The oligonucleotides were hybridized, ligated, amplified, and detected using a fluorescent probe.
Using proximity ligation assays (PLA-Duolink) technology, we investigated the binding ability of ERCC1 isoforms with ERCC1 interacting proteins.

The target in assay [2] is T2, Fanconi anemia Group G protein FANC G (human, UniProt O15287 1-622).
T2 construct: Endogenous protein of the human A549 cell line, inside fixed cells; also called Fanconi anemia complementation group G
T2 sequence: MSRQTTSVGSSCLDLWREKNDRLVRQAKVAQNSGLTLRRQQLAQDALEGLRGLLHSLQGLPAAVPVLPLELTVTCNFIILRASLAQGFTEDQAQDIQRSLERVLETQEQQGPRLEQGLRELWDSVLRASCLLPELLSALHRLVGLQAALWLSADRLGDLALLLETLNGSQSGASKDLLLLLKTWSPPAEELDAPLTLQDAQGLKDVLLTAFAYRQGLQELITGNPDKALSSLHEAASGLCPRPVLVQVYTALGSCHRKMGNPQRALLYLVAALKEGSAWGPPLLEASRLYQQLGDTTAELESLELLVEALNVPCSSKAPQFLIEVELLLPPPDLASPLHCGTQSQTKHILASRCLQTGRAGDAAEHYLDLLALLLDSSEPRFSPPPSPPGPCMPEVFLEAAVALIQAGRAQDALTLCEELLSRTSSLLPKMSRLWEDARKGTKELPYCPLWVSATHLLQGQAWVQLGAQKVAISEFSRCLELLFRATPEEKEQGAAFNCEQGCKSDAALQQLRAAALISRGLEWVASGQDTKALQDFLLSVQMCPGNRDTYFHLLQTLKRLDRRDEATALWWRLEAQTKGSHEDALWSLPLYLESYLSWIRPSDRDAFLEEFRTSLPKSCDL
In words: proximity ligation assay (Duolink), ERCC1 detected with FL297 antibody. The procedure: (§2) ERCC1 was detected using FL297 antibody.
as §1

A further assay has as its target T3, kinesin Eg5 (human, UniProt P52732 1-1056).
T3 construct: Endogenous protein of the human A549 cell line, inside fixed cells; also called encoded by the KIF11 gene
T3 sequence: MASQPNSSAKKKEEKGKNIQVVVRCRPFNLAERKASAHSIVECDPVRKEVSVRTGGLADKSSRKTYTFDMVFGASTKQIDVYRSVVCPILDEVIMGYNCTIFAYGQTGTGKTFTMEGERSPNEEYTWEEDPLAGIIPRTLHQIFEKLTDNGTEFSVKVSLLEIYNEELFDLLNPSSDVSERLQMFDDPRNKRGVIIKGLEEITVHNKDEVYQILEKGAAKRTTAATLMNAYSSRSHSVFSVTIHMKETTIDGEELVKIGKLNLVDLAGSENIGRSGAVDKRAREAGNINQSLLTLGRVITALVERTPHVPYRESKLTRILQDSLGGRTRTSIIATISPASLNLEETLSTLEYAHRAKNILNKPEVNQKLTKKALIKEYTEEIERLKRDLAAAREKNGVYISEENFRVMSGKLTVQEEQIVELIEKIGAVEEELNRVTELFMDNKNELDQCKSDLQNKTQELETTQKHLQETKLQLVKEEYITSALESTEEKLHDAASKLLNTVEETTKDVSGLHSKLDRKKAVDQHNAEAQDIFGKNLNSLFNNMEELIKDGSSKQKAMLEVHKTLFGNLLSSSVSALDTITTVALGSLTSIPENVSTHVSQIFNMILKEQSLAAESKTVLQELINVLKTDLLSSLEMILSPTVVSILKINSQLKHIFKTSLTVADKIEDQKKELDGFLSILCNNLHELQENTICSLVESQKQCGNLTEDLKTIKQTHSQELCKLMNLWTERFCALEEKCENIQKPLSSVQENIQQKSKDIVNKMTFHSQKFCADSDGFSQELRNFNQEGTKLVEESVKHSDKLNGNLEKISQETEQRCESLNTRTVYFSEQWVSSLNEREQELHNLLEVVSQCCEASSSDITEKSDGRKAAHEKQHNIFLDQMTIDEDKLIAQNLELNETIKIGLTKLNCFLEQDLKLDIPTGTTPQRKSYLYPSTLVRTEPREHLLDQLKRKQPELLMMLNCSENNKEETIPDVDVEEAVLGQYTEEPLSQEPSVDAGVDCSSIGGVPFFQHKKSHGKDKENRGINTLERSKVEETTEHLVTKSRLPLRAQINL
The assay is described as above. The procedure: as §2, §1

Assay [3] addresses T4, protein TRF2 (telomeric repeat-binding factor 2) (human, UniProt Q15554 1-542).
T4 construct: Endogenous protein of the human A549 cell line, inside fixed cells; also called encoded by the TERF2 gene
T4 sequence: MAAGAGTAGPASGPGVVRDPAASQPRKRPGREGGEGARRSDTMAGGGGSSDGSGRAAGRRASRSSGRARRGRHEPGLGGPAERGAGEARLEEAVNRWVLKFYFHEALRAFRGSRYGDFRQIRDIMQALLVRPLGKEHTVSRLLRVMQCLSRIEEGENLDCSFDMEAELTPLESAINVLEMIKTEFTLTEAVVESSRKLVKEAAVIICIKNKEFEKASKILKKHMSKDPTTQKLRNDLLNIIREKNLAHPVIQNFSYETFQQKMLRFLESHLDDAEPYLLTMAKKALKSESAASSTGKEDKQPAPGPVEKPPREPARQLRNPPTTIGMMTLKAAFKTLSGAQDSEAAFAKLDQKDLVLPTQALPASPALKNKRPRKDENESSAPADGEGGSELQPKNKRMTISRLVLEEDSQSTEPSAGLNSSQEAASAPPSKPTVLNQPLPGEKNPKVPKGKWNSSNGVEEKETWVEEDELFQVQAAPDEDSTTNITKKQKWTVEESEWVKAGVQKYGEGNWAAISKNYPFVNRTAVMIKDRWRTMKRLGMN
The assay is described as above. How it is done:
as §2, §1

B1: ERCC1-203 isoform (other)
chain: MDPGKDKEGVPQPSGPPARKKFVIPLDEDEVPPGVAKPLFRSTQSLPTVDTSAQAAPQTYAEYAISQPLEGAGATCPTGSEPLAGETPNQALKPGAKSNSIIVSPRQRGNPVLKFVRNVPWEFGDVIPDYVLGQSTCALFLSLRYHNLHPDYIHGRLQSLGKNFALRVLLVQVDVKDPQQALKELAKMCILADCTLILAWSPEEAGRYLETYKAYEQKPADLLMEKLEQDFVSRSLEQLIAASREDLALCPGLGPQKARRLFDVLHEPFLKVP
notes: Re-expressed in ERCC1-deficient A549 clone 216; Detected inside fixed, permeabilised cells by PLA; also called isoform 203
On to B1, for which, in assay [1], the binding result is “no binding”.

B2: ERCC1-204 isoform (other)
chain: MDPGKDKEGVPQPSGPPARKKFVIPLDEDEVPPGVRGNPVLKFVRNVPWEFGDVIPDYVLGQSTCALFLSLRYHNLHPDYIHGRLQSLGKNFALRVLLVQVDVKDPQQALKELAKMCILADCTLILAWSPEEAGRYLETYKAYEQKPADLLMEKLEQDFVSRVTECLTTVKSVNKTDSQTLLTTFGSLEQLIAASREDLALCPGLGPQKARRLFDVLHEPFLKVP
notes: Re-expressed in ERCC1-deficient A549 clone 216; Detected inside fixed, permeabilised cells by PLA; also called isoform 204
In the case of B2, in assay [1], the binding result was “no binding”.

B3: ERCC1-202 isoform (isoform 202 of the ERCC1 protein) (other)
chain: MDPGKDKEGVPQPSGPPARKKFVIPLDEDEVPPGVAKPLFRSTQSLPTVDTSAQAAPQTYAEYAISQPLEGAGATCPTGSEPLAGETPNQALKPGAKSNSIIVSPRQRGNPVLKFVRNVPWEFGDVIPDYVLGQSTCALFLSLRYHNLHPDYIHGRLQSLGKNFALRVLLVQVDVKDPQQALKELAKMCILADCTLILAWSPEEAGRYLETYKAYEQKPADLLMEKLEQDFVSRVTECLTTVKSVNKTDSQTLLTTFGSLEQLIAASREDLALCPGLGPQKARRLFDVLHEPFLKVP
notes: Re-expressed in ERCC1-deficient A549 clone 216; Detected inside fixed, permeabilised cells by PLA, not on the cell surface
B3: the binding result (in assay [2]; with kinesin Eg5; in assay [3]) was “binds” throughout.

B4: ERCC1-201 isoform (other)
chain: MDPGKDKEGVPQPSGPPARKKFVIPLDEDEVPPGVAKPLFRSTQSLPTVDTSAQAAPQTYAEYAISQPLEGAGATCPTGSEPLAGETPNQALKPGAKSNSIIVSPRQRGNPVLKFVRNVPWEFGDVIPDYVLGQSTCALFLSLRYHNLHPDYIHGRLQSLGKNFALRVLLVQVDVKDPQQALKELAKMCILADCTLILAWSPEEAGRYLETYKAYEQKPADLLMEKLEQDFVSRVTECLTTVKSVNKTDSQTLLTTFGSLEQLIAASREDLALCPGLGPQKVRALGKNPRSWGKERAPNKHNLRPQSFKVKKEPKTRHSGFRL
notes: Re-expressed in ERCC1-deficient A549 clone 216; Detected inside fixed, permeabilised cells by PLA; also called isoform 201
Turning to B4, the binding result in assay [1] is given as “no binding”.

(Values after US20140120543A1 (INSTITUTE GUSTAVE ROUSSY, published 2014).)
